Measurements: patent US20130022605A1

Target: hen egg lysozyme (hen) (UniProt P00698)
Assay: ELISA on HEL at 3 mg/ml, detection with 9e10 and anti mouse IgG-HRP

Sequence of hen egg lysozyme (hen) (P00698 19-147): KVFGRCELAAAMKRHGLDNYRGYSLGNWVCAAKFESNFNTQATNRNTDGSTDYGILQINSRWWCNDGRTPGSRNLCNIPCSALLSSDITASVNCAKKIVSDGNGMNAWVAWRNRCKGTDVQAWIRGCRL

ELISA signal (background): 0.069
B1: VH Cκ chain expressed alone (TAR2-5 Cκ) (protein, not shown: small tags and cut ends)
chain: EVQLLESGGGLVQPGGSLRLSCAASGFTFDLYNMFWVRQAPGKGLEWVSFISQTGRLTWYADSVKGRFTISRDNSKNTLYLQMNSLRAEDTAVYYCAKTLEDFDYWGQGTLVTVSS
